From patent US20190359687A1 (Bayer, published 2019)

T1: human glycophorin A in the red blood cell membrane (human, UniProt P02724 20-150)
T1 construct: whole, on cells; used for intact RBC, isolated RBC membranes and transfected cells; the assay field tells which; also called GPA; hGPA
T1 sequence (looked up): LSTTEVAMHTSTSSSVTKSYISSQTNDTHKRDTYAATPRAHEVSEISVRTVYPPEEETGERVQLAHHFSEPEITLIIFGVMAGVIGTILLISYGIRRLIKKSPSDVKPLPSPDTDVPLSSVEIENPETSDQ

T2: recombinant human GPA ectodomain (human, UniProt P02724 20-91)
T2 construct: also called recombinant hGPA ECD; recGPA
T2 sequence: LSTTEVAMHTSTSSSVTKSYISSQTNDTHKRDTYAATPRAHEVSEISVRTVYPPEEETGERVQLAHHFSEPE

T3: purified human glycophorin A protein (Sigma, cat # G5017) (human, UniProt P02724 20-150)
T3 construct: mature; also called Sigma hGPA; Sigma GPA
T3 sequence (looked up): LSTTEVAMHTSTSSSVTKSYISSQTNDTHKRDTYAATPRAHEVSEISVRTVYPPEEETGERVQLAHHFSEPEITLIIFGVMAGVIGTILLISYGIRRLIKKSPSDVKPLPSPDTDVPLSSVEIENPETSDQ

T4: human glycophorin A on human red blood cells or red blood cell membranes (human, UniProt P02724 20-150)
T4 construct: whole, on cells; also called hRBC; human RBC membranes
T4 sequence (looked up): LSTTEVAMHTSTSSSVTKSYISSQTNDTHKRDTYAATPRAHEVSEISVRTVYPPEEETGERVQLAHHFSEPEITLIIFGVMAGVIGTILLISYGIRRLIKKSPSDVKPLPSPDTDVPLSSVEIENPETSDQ


Tests used:
[1] = target: T1, human glycophorin A in the red blood …; assay: SPR (Biacore), single cycle kinetics, human RBC membranes on L1 sensor, Fab flowed over
Description: Kinetic analysis of the antibody binding to human red blood cell membranes was also performed using surface plasmon resonance (SPR) using a Biacore instrument. In this assay membranes prepared from human red blood cells were attached to a L1 sensor matrix and antibodies were flowed over the RBC membranes.

[2] = target: T2, recombinant human GPA ectodomain; assay: ELISA, rec hGPA ectodomain
[3] = target: T3, purified human glycophorin A protein …; assay: ELISA, native hGPA
[4] = target: T1, human glycophorin A in the red blood …; assay: ELISA, human RBC membranes;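 also: antibodies bound to isolated human red blood cell membrane ghosts coated on 96-well plates, tested 1.5 h at room temperature, bound antibody quantified with a detection antibody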
[5] = target: T4, human glycophorin A on human red blood …; assay: scFv on intact human RBC, unbound scFv by ELISA; 5 min after 200-fold dilution
Description: (§1) RBC diluted to 1/10th of normal hematocrit were incubated with the set of “Top 10” purified scFv antibodies at a final concentration of 7 ug/ml for 1 hour at room temperature on a rotating shaker after which a sample was taken and the RBC were pelleted by centrifugation and the supernatant was collected. The remaining RBC suspension was diluted 200-fold in PBS buffer and incubated for a total of 2 hours at room temperature on a rotating shaker and samples were removed at 0, 5 min, 20 min, 1 h and 2 h and the RBC pelleted and the supernatant collected. […] The percentage that remains bound after dilution is an indication of the overall strength of the binding to human RBC.

[6] = target: T4, human glycophorin A on human red blood …; assay: scFv on intact human RBC, unbound scFv by ELISA; 20 min after 200-fold dilution
Description: as §1

[7] = target: T4, human glycophorin A on human red blood …; assay: scFv 7 ug/ml on intact human RBC, unbound scFv by ELISA; pre-dilution
Description: as §1

[8] = target: T4, human glycophorin A on human red blood …; assay: scFv on intact human RBC, unbound scFv by ELISA; 60 min after 200-fold dilution
Description: as §1

[9] = target: T4, human glycophorin A on human red blood …; assay: scFv on intact human RBC, unbound scFv by ELISA; 120 min after 200-fold dilution
Description: as §1

[10] = target: T4, human glycophorin A on human red blood …; assay: scFv on intact human RBC, unbound scFv by ELISA; 0 min after 200-fold dilution
Description: as §1

Kd [1]	koff [1]	kon [1]	binding by ELISA relative to parental [2]	binding by ELISA relative to parental [3]	binding by ELISA relative to parental [4]	percentage of input scFv antibody bound [5]	percentage of input scFv antibody bound [6]	percentage of input scFv antibody bound [7]	percentage of input scFv antibody bound [8]	percentage of input scFv antibody bound [9]	percentage of input scFv antibody bound [10]	Binder
25 nM	0.019 s⁻¹	740000 M⁻¹ s⁻¹	1.5	1.62	1.76	–	–	–	–	–	–	TPP-5348 (Fab, V domains shown, also called VL: (S49A)) VH: EVQLVQSGAEVKKPGASVKVSCKASGYTFTTYTIHWVRQAPGQGLEWIGYINPSSDYTRYNPKFKDRVTLTTDKSTSTAYMELRSLRSDDTAVYYCQTGTRDYWGQGTTVTVSS VL: DIQLTQSPSFLSASVGDRVTITCSAASSVSYIYWFQQKPGKAPKLLIYATSTLPSGVPSRFSGSGSGTEYTLTISSLQPEDFATYYCHQRNSFPFTFGQGTKLEIKR
130 nM	0.048 s⁻¹	370000 M⁻¹ s⁻¹	–	–	–	–	–	–	–	–	–	Fab papain 6C12-24 (Fab, V domains shown, also called parent: Fab 6C12-24) VH: EVQLVQSGAEVKKPGASVKVSCKASGYTFTTYTIHWVRQAPGQGLEWIGYINPSSDYTRYNPKFKDRVTLTTDKSTSTAYMELRSLRSDDTAVYYCQTGTRDYWGQGTTVTVSS VL: DIQLTQSPSFLSASVGDRVTITCSAASSVSYIYWFQQKPGKAPKLLIYSTSTLPSGVPSRFSGSGSGTEYTLTISSLQPEDFATYYCHQRNSFPFTFGQGTKLEIK
–	–	–	–	–	–	99%	98%	100%	95%	92%	100%	TPP-7792 scFv with C-terminal 6xHIS tag (scFv) scFv: DIQLTQSPSFLSASVGDRVTITCRASSSVRYIYWFQQKPGKAPKLLIYATSFRQSGVPSRFSGSGSGTEYTLTISSLQPEDFATYYCHQRNSFPYTFGQGTKLEIKGGGGSGGGGSGGGGSGGGGSEVQLVQSGAEVKKPGASVKVSCKASGYTFTTYAIHWVRQAPGQGLEWMGYINPSSGYTRYNPKFKGRVTMTRDKSTSTAYMELRSLRSDDTAVYYCWTGTRDYWGQGTTVTVSSHHHHHH
–	–	–	–	–	–	88%	81%	98%	79%	76%	97%	TPP-7778 scFv with C-terminal 6xHIS tag (scFv) scFv: DIQLTQSPSFLSASVGDRVTITCRASSSVRYIYWFQQKPGKAPKLLIYATSTLQSGVPSRFSGSGSGTEYTLTISSLQPEDFATYYCHQRNSFPYTFGQGTKLEIKGGGGSGGGGSGGGGSGGGGSEVQLVQSGAEVKKPGASVKVSCKASGYTFTTYAIHWVRQAPGQGLEWMGYINPSSGYTRYNPKFKHRVTMTRDKSTSTAYMELRSLRSDDTAVYYCQTGTRDYWGQGTTVTVSSHHHHHH
–	–	–	–	–	–	91%	87%	92%	89%	85%	92%	TPP-7782 scFv with C-terminal 6xHIS tag (scFv) scFv: DIQLTQSPSFLSASVGDRVTITCRASSSVRYIYWFQQKPGKAPKLLIYATSFRQSGVPSRFSGSGSGTEYTLTISSLQPEDFATYYCHQRNSFPYTFGQGTKLEIKGGGGSGGGGSGGGGSGGGGSEVQLVQSGAEVKKPGASVKVSCKASGYTFTTYTIHWVRQAPGQGLEWMGYINPSSGYTRYNPKFKGRVTMTRDKSTSTAYMELRSLRSDDTAVYYCQTGTRDYWGQGTTVTVSSHHHHHH
–	–	–	–	–	–	94%	93%	97%	93%	92%	97%	TPP-7781 scFv with C-terminal 6xHIS tag (scFv) scFv: DIQLTQSPSFLSASVGDRVTITCRASSSVRYIYWFQQKPGKAPKLLIYATSTLQSGVPSRFSGSGSGTEYTLTISSLQPEDFATYYCHQRNSFPYTFGQGTKLEIKGGGGSGGGGSGGGGSGGGGSEVQLVQSGAEVKKPGASVKVSCKASGYTFTTYTIHWVRQAPGQGLEWMGYINPKSGWTRYNPKFKGRVTMTRDKSTSTAYMELRSLRSDDTAVYYCQTGTRDYWGQGTTVTVSSHHHHHH
–	–	–	–	–	–	92%	84%	92%	81%	79%	92%	TPP-7793 scFv with C-terminal 6xHIS tag (scFv) scFv: DIQLTQSPSFLSASVGDRVTITCRASSSVSYIYWFQQKPGKAPKLLIYATSTLQSGVPSRFSGSGSGTEYTLTISSLQPEDFATYYCHQRNSFPYTFGQGTKLEIKGGGGSGGGGSGGGGSGGGGSEVQLVQSGAEVKKPGASVKVSCKASGYTFTRYTIHWVRQAPGQGLEWMGYINPSSGYTRYNPKFKGRVTMTRDKSTSTAYMELRSLRSDDTAVYYCWTGTRDYWGQGTTVTVSSHHHHHH
–	–	–	–	–	–	99%	99%	99%	94%	87%	99%	TPP-7790 scFv with C-terminal 6xHIS tag (scFv) scFv: DIQLTQSPSFLSASVGDRVTITCRASSSVRYIYWFQQKPGKAPKLLIYATSFLQSGVPSRFSGSGSGTEYTLTISSLQPEDFATYYCHQRNSFPYTFGQGTKLEIKGGGGSGGGGSGGGGSGGGGSEVQLVQSGAEVKKPGASVKVSCKASGYTFTTYAIHWVRQAPGQGLEWMGYINPSSGYTRYNPKFKHRVTMTRDKSTSTAYMELRSLRSDDTAVYYCWTGTRDYWGQGTTVTVSSHHHHHH
–	–	–	–	–	–	94%	94%	94%	94%	94%	94%	TPP-7783 scFv with C-terminal 6xHIS tag (scFv) scFv: DIQLTQSPSFLSASVGDRVTITCRASSSVRYIYWFQQKPGKAPKLLIYATSFRRSGVPSRFSGSGSGTEYTLTISSLQPEDFATYYCHQRNSFPYTFGQGTKLEIKGGGGSGGGGSGGGGSGGGGSEVQLVQSGAEVKKPGASVKVSCKASGYTFTTYAIHWVRQAPGQGLEWMGYINPSSGYTRYNPKFKHRVTMTRDKSTSTAYMELRSLRSDDTAVYYCWTGTRDYWGQGTTVTVSSHHHHHH
–	–	–	–	–	–	85%	82%	100%	84%	80%	100%	TPP-7795 scFv with C-terminal 6xHIS tag (scFv) scFv: DIQLTQSPSFLSASVGDRVTITCRASSSVSYIYWFQQKPGKAPKLLIYATSFLQSGVPSRFSGSGSGTEYTLTISSLQPEDFATYYCHQRNSFPYTFGQGTKLEIKGGGGSGGGGSGGGGSGGGGSEVQLVQSGAEVKKPGASVKVSCKASGYTFTTYTIHWVRQAPGQGLEWMGYINPKSGWTRYNPKFKGRVTMTRDKSTSTAYMELRSLRSDDTAVYYCQTGTRDYWGQGTTVTVSSHHHHHH
–	–	–	–	–	–	98%	98%	98%	99%	97%	98%	TPP-7797 scFv with C-terminal 6xHIS tag (scFv) scFv: DIQLTQSPSFLSASVGDRVTITCRASSSVRYIYWFQQKPGKAPKLLIYATSFRQSGVPSRFSGSGSGTEYTLTISSLQPEDFATYYCHQRNSFPYTFGQGTKLEIKGGGGSGGGGSGGGGSGGGGSEVQLVQSGAEVKKPGASVKVSCKASGYTFTTYTIHWVRQAPGQGLEWMGYINPSSGYTRYNPKFKGRVTMTRDKSTSTAYMELRSLRSDDTAVYYCWTGRRDYWGQGTTVTVSSHHHHHH
–	–	–	–	–	–	85%	85%	85%	85%	85%	85%	TPP-7794 scFv with C-terminal 6xHIS tag (scFv) scFv: DIQLTQSPSFLSASVGDRVTITCRASSSVRYIYWFQQKPGKAPKLLIYATSFRQSGVPSRFSGSGSGTEYTLTISSLQPEDFATYYCHQRNSFPYTFGQGTKLEIKGGGGSGGGGSGGGGSGGGGSEVQLVQSGAEVKKPGASVKVSCKASGYTFTTYAIHWVRQAPGQGLEWMGYINPSSGYTRYNPKFKHRVTMTRDKSTSTAYMELRSLRSDDTAVYYCWTGTRDYWGQGTTVTVSSHHHHHH
